Here are results for 35 molecules from patent US20210388087A1 (Chugai, published 2021).

B1: dBBDu183H V100iT/dBBDu072L (antibody, name in Kabat numbering, V domains shown)
VH: QVQLVESGGGLVQPGRSLRLSCAASGFTFSNAWMHWVRQAPGKGLEWVAQIKDKGNAYAAYYAPSVKGRFTISRDDSKNSIYLQMNSLKTEDTAVYYCHYVHYASASTVLPAFGTDAWGQGTTVTVSS
VL: DIVMTQSPLSLPVTPGEPASISCQASQELVHMNRNTYLHWYQQKPGQAPRLLIYKVSNRFPGVPDRFSGSGSGTDFTLKISRVEAEDVGVYYCAQGTSVPFTFGQGTKLEIK
B2: dBBDu183H Y97K/dBBDu072L (antibody, name in Kabat numbering, V domains shown)
VH: B1 VH with Y103K, T115V
VL: B1 VL
B3: dBBDu183H Y94H/dBBDu072L (antibody, name in Kabat numbering, V domains shown)
VH: B1 VH with Y100H, T115V
VL: B1 VL
B4: dBBDu183H Y94E/dBBDu072L (antibody, name in Kabat numbering, V domains shown)
VH: B1 VH with Y100E, T115V
VL: B1 VL
B5: dBBDu183H Y94T/dBBDu072L (antibody, name in Kabat numbering, V domains shown)
VH: B1 VH with Y100T, T115V
VL: B1 VL
B6: dBBDu183H Y97N/dBBDu072L (antibody, name in Kabat numbering, V domains shown)
VH: B1 VH with Y103N, T115V
VL: B1 VL
B7: dBBDu183H Y94D/dBBDu072L (antibody, name in Kabat numbering, V domains shown)
VH: B1 VH with Y100D, T115V
VL: B1 VL
B8: dBBDu183H Y97D/dBBDu072L (antibody, name in Kabat numbering, V domains shown)
VH: B1 VH with Y103D, T115V
VL: B1 VL
B9: dBBDu183H Y94G/dBBDu072L (antibody, name in Kabat numbering, V domains shown)
VH: B1 VH with Y100G, T115V
VL: B1 VL
B10: dBBDu183H Y97T/dBBDu072L (antibody, name in Kabat numbering, V domains shown)
VH: B1 VH with Y103T, T115V
VL: B1 VL
B11: dBBDu183H Y94F/dBBDu072L (antibody, name in Kabat numbering, V domains shown)
VH: B1 VH with Y100F, T115V
VL: B1 VL
B12: dBBDu183H Y97E/dBBDu072L (antibody, name in Kabat numbering, V domains shown)
VH: B1 VH with Y103E, T115V
VL: B1 VL
B13: dBBDu183H Y94N/dBBDu072L (antibody, name in Kabat numbering, V domains shown)
VH: B1 VH with Y100N, T115V
VL: B1 VL
B14: dBBDu183H Y97H/dBBDu072L (antibody, name in Kabat numbering, V domains shown)
VH: B1 VH with Y103H, T115V
VL: B1 VL
B15: dBBDu183H Y97F/dBBDu072L (antibody, name in Kabat numbering, V domains shown)
VH: B1 VH with Y103F, T115V
VL: B1 VL
B16: dBBDu183H Y97G/dBBDu072L (antibody, name in Kabat numbering, V domains shown)
VH: B1 VH with Y103G, T115V
VL: B1 VL
B17: dBBDu183H V100iY/dBBDu072L (antibody, name in Kabat numbering, V domains shown)
VH: B1 VH with T115Y
VL: B1 VL
B18: dBBDu183H Y94W/dBBDu072L (antibody, name in Kabat numbering, V domains shown)
VH: B1 VH with Y100W, T115V
VL: B1 VL
B19: dBBDu183H Y94V/dBBDu072L (antibody, name in Kabat numbering, V domains shown)
VH: B1 VH with Y100V, T115V
VL: B1 VL
B20: dBBDu183H Y97R/dBBDu072L (antibody, name in Kabat numbering, V domains shown)
VH: B1 VH with Y103R, T115V
VL: B1 VL
B21: dBBDu183H Y94K/dBBDu072L (antibody, name in Kabat numbering, V domains shown)
VH: B1 VH with Y100K, T115V
VL: B1 VL
B22: dBBDu183H V100iW/dBBDu072L (antibody, name in Kabat numbering, V domains shown)
VH: B1 VH with T115W
VL: B1 VL
B23: dBBDu183H Y94R/dBBDu072L (antibody, name in Kabat numbering, V domains shown)
VH: B1 VH with Y100R, T115V
VL: B1 VL
B24: dBBDu183H Y94S/dBBDu072L (antibody, name in Kabat numbering, V domains shown)
VH: B1 VH with Y100S, T115V
VL: B1 VL
B25: dBBDu183H Y94Q/dBBDu072L (antibody, name in Kabat numbering, V domains shown)
VH: B1 VH with Y100Q, T115V
VL: B1 VL
B26: dBBDu183H Y97W/dBBDu072L (antibody, name in Kabat numbering, V domains shown)
VH: B1 VH with Y103W, T115V
VL: B1 VL
B27: dBBDu183H Y97V/dBBDu072L (antibody, name in Kabat numbering, V domains shown)
VH: B1 VH with Y103V, T115V
VL: B1 VL
B28: dBBDu183H Y97S/dBBDu072L (antibody, name in Kabat numbering, V domains shown)
VH: B1 VH with Y103S, T115V
VL: B1 VL
B29: dBBDu183H Y97Q/dBBDu072L (antibody, name in Kabat numbering, V domains shown)
VH: B1 VH with Y103Q, T115V
VL: B1 VL
B30: CE115HA000 H35A one-arm antibody (antibody, human IgG1, kappa, L234A L235A, N297A, name in Kabat numbering)
heavy: QVQLVESGGGVVQPGRSLRLSCAASGFTFSNAWMAWVRQAPGKGLEWVAQIKAKSNNYATYYAESVKGRFTISRDDSKNSLYLQMNSLKTEDTAVYYCRYVHYGAYYGVDAWGQGTTVTVSSASTKGPSVFPLAPSSKSTSGGTAALGCLVKDYFPEPVTVSWNSGALTSGVHTFPAVLQSSGLYSLSSVVTVPSSSLGTQTYICNVNHKPSNTKVDKKVEPKSCDKTHTCPPCPAPEAAGGPSVFLFPPKPKDTLMISRTPEVTCVVVDVSHEDPEVKFNWYVDGVEVHNAKTKPREEQYASTYRVVSVLTVLHQDWLNGKEYKCKVSNKALPAPIEKTISKAKGQPREPQVYTLPPSRCELTKNQVSLSCAVKGFYPSDIAVEWESNGQPENNYKTTPPVLDSDGSFFLVSKLTVDKSRWQQGNVFSCSVMHEALHNHYTQKSLSLSPDYKDDDDK
chain: EPKSSDKTHTCPPCPAPELLGGPSVFLFPPKPKDTLMISRTPEVTCVVVDVSHEDPEVKFNWYVDGVEVHNAKTKPREEQYNSTYRVVSVLTVLHQDWLNGKEYKCKVSNKALPAPIEKTISKAKGQPREPQVCTLPPSRDELTKNQVSLWCLVKGFYPSDIAVEWESNGQPENNYKTTPPVLDSDGSFFLYSKLTVDKSRWQQGNVFSCSVMHEALHNRYTQKSLSLSP
light: DIVMTQSPLSLPVTPGEPASISCRSSQSLVHSNRNTYLHWYQQKPGQAPRLLIYKVSNRFSGVPDRFSGSGSGTDFTLKISRVEAEDVGVYYCGQGTQVPYTFGQGTKLEIKRTVAAPSVFIFPPSDEQLKSGTASVVCLLNNFYPREAKVQWKVDNALQSGNSQESVTEQDSKDSTYSLSSTLTLSKADYEKHKVYACEVTHQGLSSPVTKSFNRGEC
B31: CE115HA000 A52aG one-arm antibody (antibody, human IgG1, kappa, L234A L235A, N297A, name in Kabat numbering)
heavy: B30 heavy with A35H, A53G
chain: B30 chain
light: B30 light
B32: CE115HA000 A52aD one-arm antibody (antibody, human IgG1, kappa, L234A L235A, N297A, name in Kabat numbering)
heavy: B30 heavy with A35H, A53D
chain: B30 chain
light: B30 light
B33: CE115HA000 A52aP one-arm antibody (antibody, human IgG1, kappa, L234A L235A, N297A, name in Kabat numbering)
heavy: B30 heavy with A35H, A53P
chain: B30 chain
light: B30 light
B34: CE115HA000 A52aE one-arm antibody (antibody, human IgG1, kappa, L234A L235A, N297A, name in Kabat numbering)
heavy: B30 heavy with A35H, A53E
chain: B30 chain
light: B30 light
B35: CE115HA000 A32Y one-arm antibody (antibody, human IgG1, kappa, L234A L235A, N297A, name in Kabat numbering)
heavy: B30 heavy with A32Y, A35H
chain: B30 chain
light: B30 light

Substitutions are numbered along the chain they refer to. Names and notes keep the numbering of the source.

The first experiment concerns the target T1, Human CD3eg linker (human).
T1 construct: single-chain construct; also called recombinant human CD3
T1 chain: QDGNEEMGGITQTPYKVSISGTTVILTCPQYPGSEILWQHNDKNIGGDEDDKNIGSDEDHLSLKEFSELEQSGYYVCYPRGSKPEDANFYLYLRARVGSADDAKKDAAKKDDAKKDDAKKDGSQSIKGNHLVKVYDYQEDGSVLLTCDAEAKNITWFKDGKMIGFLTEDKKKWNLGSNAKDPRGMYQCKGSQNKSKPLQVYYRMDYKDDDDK
Put plainly: SPR, vs unmutated H183/L072. In general terms: SPR reads the build-up and loss of mass on a sensor chip optically.
With B1, the “fold change of affinity” value was found to be 1 fold.
On the same count and under the same terms, to B2 belongs 0 fold.
B3: the “fold change of affinity” value stood at 0.5 fold.
On to B4, for which the “fold change of affinity” value worked out at 0 fold.
Still for that read-out and setting: the value for B5 was 0.3 fold; that for B6 was 0 fold.
As for B7, the “fold change of affinity” value is 0 fold.
Still for that read-out and setting: the value for B8 was 0 fold.
For B9, the “fold change of affinity” value is 1.1 fold.
On the same count and under the same terms, to B10 belongs 0 fold; to B11, 0.4 fold.
Still for that read-out and setting: to B12 belongs 0 fold.
On to B13, for which the “fold change of affinity” value is 0 fold.
Still for that read-out and setting: the value for B14 was 0 fold; that for B15 was 0 fold.
The same measure, in the same setting: the value for B16 was 0 fold; that for B17 was 3 fold.
Still for that read-out and setting: the value for B18 was 0.4 fold; that for B19 was 2.6 fold.
For the molecule B20, the “fold change of affinity” value came out at 0 fold.
The same measure, in the same setting: to B21 belongs 0 fold; to B22, 4.9 fold; to B23, 0.3 fold.
On the same count and under the same terms, to B24 belongs 0 fold; to B25, 0.4 fold.
Regarding B26, the “fold change of affinity” value turned out to be 0.2 fold.
On the same count and under the same terms, the value for B27 was 0 fold; that for B28 was 0 fold; that for B29 was 0 fold.

In a further experiment the target is T2, CD3 epsilon homodimer protein (UniProt P07766 23-126).
T2 construct: immobilized on Sensor chip CM4 by amine coupling; also called CD3 (CD3 epsilon)
T2 sequence (P07766 23-126): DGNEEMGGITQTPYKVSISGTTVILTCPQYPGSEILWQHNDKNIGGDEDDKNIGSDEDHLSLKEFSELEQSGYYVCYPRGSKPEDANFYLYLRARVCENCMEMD
Put plainly: SPR (Biacore T200), CD3 epsilon homodimer on CM4 chip, one-arm antibody as analyte, 25 C.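 Note: homodimer attached to the sensor surface via amine coupling, HBS-EP+ used as running buffer during binding runs.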
For the molecule B30, the “ratio of amounts bound (altered form / CE115HA000)” value was determined as 0.17.
Same read-out and setting: the value for B31 was 0.81.
On the same count and under the same terms, the value for B32 was 1.34; that for B33 was 0.15.
Still for that read-out and setting: the value for B34 was 0.57; that for B35 was 0.33.
